Experimental data from the supplement of paper PMC7125110.
± gives the standard error. For some assays here: This sample holds only a part of the variants without activity.

B1: glmS ribozyme (parent)
chain: AUAAAAGCGCCAGAACUACAGAAAUGUAGUUGACGAGGAGGAGGUUUAUCGAAUUUUCGGCGGAUGCCUCCAAA

Tests used:
Settings in all cases: with glucosamine-6-phosphate
[1] = variants of: B1; experiment: kcat; higher = faster cleavage; RNA array
Outline: (§1)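 Glucosamine-6-phosphate, from 40 μM to 10 mM in HEPES/KCl/Mg(OAc)2 buffer, was flowed over sequenced MiSeq chips carrying barcoded ribozyme variants transcribed in situ by E. coli RNA polymerase. A hybridised Cy3 probe tracked the variants at 37 °C as tiles were imaged over ~14 h. kobs, kcat and KM were obtained by fitting normalised per-tile medians to exponential decays and then applying weighted Michaelis–Menten fits across concentrations.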

[2] = variants of: B1; experiment: KM; higher = weaker cofactor use; RNA array
Outline: as §1

[3] = variants of: B1; experiment: self-cleavage kobs at 40 uM GlcN6P; higher = faster cleavage; RNA array
Outline: as §1

[4] = variants of: B1; experiment: self-cleavage kobs at 160 uM GlcN6P; higher = faster cleavage; RNA array
Outline: as §1

[5] = variants of: B1; experiment: self-cleavage kobs at 640 uM GlcN6P; higher = faster cleavage; RNA array
Outline: as §1

[6] = variants of: B1; experiment: self-cleavage kobs at 2500 uM GlcN6P; higher = faster cleavage; RNA array
Outline: as §1

[7] = variants of: B1; experiment: self-cleavage kobs at 10000 uM GlcN6P; higher = faster cleavage; RNA array
Outline: as §1

| Variant | kcat [1] | KM [2] | self-cleavage kobs at 40 uM GlcN6P [3] | self-cleavage kobs at 160 uM GlcN6P [4] | self-cleavage kobs at 640 uM GlcN6P [5] | self-cleavage kobs at 2500 uM GlcN6P [6] | self-cleavage kobs at 10000 uM GlcN6P [7] |
| --- | --- | --- | --- | --- | --- | --- | --- |
| G66U C67G | 0.000827 ± 0.00015 s⁻¹ | 2210 ± 730 µM | 3e-05 ± 7.9e-06 s⁻¹ | 4.82e-05 ± 7.9e-06 s⁻¹ | 0.000262 ± 5.1e-05 s⁻¹ | 0.000418 ± 4.7e-05 s⁻¹ | 0.000687 ± 6.4e-05 s⁻¹ |
| G32A C58U | 6.81e-05 ± 1.1e-05 s⁻¹ |  | < 1e-05 s⁻¹ |  | 3.37e-05 ± 1.6e-05 s⁻¹ | 4.13e-05 ± 1.1e-05 s⁻¹ | 6.46e-05 ± 1.3e-05 s⁻¹ |
| U30C G37A | 2.63e-05 ± 1.2e-06 s⁻¹ | 710 ± 290 µM |  |  |  |  | 2.44e-05 ± 9e-06 s⁻¹ |
| A48G U56C | 5.09e-05 ± 1.7e-06 s⁻¹ | 3700 ± 360 µM |  |  |  |  | 3.71e-05 ± 1.1e-05 s⁻¹ |
| A36U U69C | 2.28e-05 ± 3.7e-06 s⁻¹ |  |  |  |  |  |  |
| G37U G51C | < 1e-05 s⁻¹ |  |  |  |  |  | < 1e-05 s⁻¹ |
| C50U U54G | 2.58e-05 ± 7.2e-06 s⁻¹ |  |  |  |  | 4e-05 ± 1.6e-05 s⁻¹ |  |
| C11U U45G U54A | 0.000206 ± 5.6e-05 s⁻¹ |  |  |  |  | 0.000119 ± 2.7e-05 s⁻¹ | 0.000152 ± 3.4e-05 s⁻¹ |
| C11U A14U C16G | 0.000375 ± 7.9e-05 s⁻¹ |  |  |  |  | 6.42e-05 ± 2.5e-05 s⁻¹ | 0.000164 ± 3.4e-05 s⁻¹ |
| C16U G44A | 0.000353 ± 9.4e-05 s⁻¹ |  |  |  | 7.56e-05 ± 1.5e-05 s⁻¹ | 0.000392 ± 7.1e-05 s⁻¹ | 0.000277 ± 3.6e-05 s⁻¹ |
| C16A C71A | 0.000128 ± 2e-05 s⁻¹ |  |  | 3.26e-05 ± 1.3e-05 s⁻¹ | 7.22e-05 ± 1.1e-05 s⁻¹ | 0.000187 ± 3.1e-05 s⁻¹ | 0.000114 ± 1.2e-05 s⁻¹ |
| C10A C58U | < 1e-05 s⁻¹ |  |  |  | < 1e-05 s⁻¹ |  |  |
| U46G C70A | 0.000224 ± 6.8e-05 s⁻¹ |  | 4.78e-05 ± 1.2e-05 s⁻¹ | 4.54e-05 ± 1.6e-05 s⁻¹ | 0.000153 ± 2.5e-05 s⁻¹ | 0.000395 ± 7.2e-05 s⁻¹ | 0.000188 ± 3.1e-05 s⁻¹ |
| U46C C58U | 3.35e-05 ± 5.4e-07 s⁻¹ | 1400 ± 110 µM | < 1e-05 s⁻¹ |  |  |  | 2.93e-05 ± 9e-06 s⁻¹ |
| A52C U69A | 1.76e-05 ± 5.9e-06 s⁻¹ |  |  |  |  |  |  |
| G41A G66U C70A | 0.000127 ± 3e-05 s⁻¹ |  |  |  | 9.26e-05 ± 3.3e-05 s⁻¹ | 6.32e-05 ± 2.8e-05 s⁻¹ | 0.000131 ± 2e-05 s⁻¹ |
| A12C A53U | 0.015 ± 0.0038 s⁻¹ | 2160 ± 740 µM | 0.000376 ± 4.9e-05 s⁻¹ | 0.000867 ± 0.00013 s⁻¹ | 0.00317 ± 0.00041 s⁻¹ | 0.0103 ± 0.0019 s⁻¹ | 0.0121 ± 0.0016 s⁻¹ |
| U54G G60A | 2.28e-05 ± 5.4e-06 s⁻¹ |  |  | < 1e-05 s⁻¹ |  |  |  |
| C34G U46G C50U C67U | 1.54e-05 ± 5.4e-06 s⁻¹ |  |  |  |  |  |  |

| Variant | kcat [1] | KM [2] | self-cleavage kobs at 40 uM GlcN6P [3] | self-cleavage kobs at 160 uM GlcN6P [4] | self-cleavage kobs at 640 uM GlcN6P [5] | self-cleavage kobs at 2500 uM GlcN6P [6] | self-cleavage kobs at 10000 uM GlcN6P [7] |
| --- | --- | --- | --- | --- | --- | --- | --- |
| G41U U46C | 8.91e-05 ± 1.3e-06 s⁻¹ | 676 ± 50 µM |  |  | 4.34e-05 ± 1.9e-05 s⁻¹ | 7.05e-05 ± 1.8e-05 s⁻¹ | 8.33e-05 ± 1.3e-05 s⁻¹ |
| G40U C70G | 0.000495 ± 8.8e-05 s⁻¹ | 1770 ± 560 µM | 2.91e-05 ± 7.3e-06 s⁻¹ | 4.28e-05 ± 7.1e-06 s⁻¹ | 0.000121 ± 1e-05 s⁻¹ | 0.000346 ± 3.4e-05 s⁻¹ | 0.000404 ± 3.4e-05 s⁻¹ |
| G13C U54C | 0.000135 ± 1.9e-05 s⁻¹ | 2870 ± 1000 µM |  |  |  | 5.89e-05 ± 1.2e-05 s⁻¹ | 0.000107 ± 1.7e-05 s⁻¹ |
| G13C U54A | 0.000202 ± 4.2e-05 s⁻¹ | 8810 ± 3600 µM |  |  |  | 4.26e-05 ± 8.3e-06 s⁻¹ | 0.000108 ± 7.3e-06 s⁻¹ |
| C16A U46G A48G C50U C67A | 1.04e-05 ± 4.5e-06 s⁻¹ |  |  |  |  |  |  |
| A15G A48C | 0.000466 ± 1.6e-05 s⁻¹ | 2830 ± 210 µM |  | 2.29e-05 ± 1.1e-05 s⁻¹ | 9.04e-05 ± 1.7e-05 s⁻¹ | 0.000212 ± 3.2e-05 s⁻¹ | 0.000365 ± 3.6e-05 s⁻¹ |
| G13U U30C | 0.000509 ± 0.00014 s⁻¹ | 3530 ± 1600 µM |  | 3.75e-05 ± 1e-05 s⁻¹ | 6.12e-05 ± 1.2e-05 s⁻¹ | 0.000253 ± 3.1e-05 s⁻¹ | 0.000354 ± 4.9e-05 s⁻¹ |
| A14C G66U | 0.000181 ± 3.7e-05 s⁻¹ |  |  |  | 8.12e-05 ± 1.4e-05 s⁻¹ | 9.62e-05 ± 2e-05 s⁻¹ | 0.000191 ± 2.6e-05 s⁻¹ |
| G37A A53C C71U | 9.8e-05 ± 3.3e-06 s⁻¹ | 1010 ± 85 µM |  |  | 3.79e-05 ± 1.4e-05 s⁻¹ | 6.98e-05 ± 1.5e-05 s⁻¹ |  |
| G13U U47G | 0.000262 ± 5.2e-05 s⁻¹ | 2420 ± 890 µM |  |  | 4.72e-05 ± 7.2e-06 s⁻¹ | 0.000158 ± 1.5e-05 s⁻¹ | 0.00019 ± 2.5e-05 s⁻¹ |
| U47G C70A | 0.000101 ± 9.5e-06 s⁻¹ |  | 3.74e-05 ± 1.6e-05 s⁻¹ | 0.000107 ± 1.5e-05 s⁻¹ | 9.99e-05 ± 1.3e-05 s⁻¹ | 0.000111 ± 1.3e-05 s⁻¹ | 8.94e-05 ± 8.5e-06 s⁻¹ |
| U45C U57C | 1.67e-05 ± 1e-06 s⁻¹ | 6920 ± 1000 µM |  |  |  |  |  |
| C10U C67A | 1.13e-05 ± 2.7e-06 s⁻¹ |  |  |  |  |  |  |
| A39C G59A | < 1e-05 s⁻¹ |  | < 1e-05 s⁻¹ | < 1e-05 s⁻¹ | < 1e-05 s⁻¹ |  |  |
| A12C A14C | 0.00082 ± 0.00025 s⁻¹ | 6190 ± 2800 µM |  | 4e-05 ± 1.8e-05 s⁻¹ | 7.98e-05 ± 2e-05 s⁻¹ | 0.000201 ± 5.1e-05 s⁻¹ | 0.000534 ± 0.0001 s⁻¹ |
| U45C C71U | 0.00401 ± 0.00038 s⁻¹ | 2470 ± 340 µM | 6.69e-05 ± 7.5e-06 s⁻¹ | 0.000236 ± 5.8e-05 s⁻¹ | 0.000828 ± 0.00012 s⁻¹ | 0.00167 ± 0.00031 s⁻¹ | 0.00338 ± 0.00033 s⁻¹ |
| C16G C50G | 4.79e-05 ± 1.9e-05 s⁻¹ |  |  |  |  | 6.05e-05 ± 1.4e-05 s⁻¹ |  |
| G7U C10U G37A C67A | 3.55e-05 ± 1.6e-05 s⁻¹ |  |  |  |  |  |  |
| A42G U57G | 4.9e-05 ± 1.3e-06 s⁻¹ | 514 ± 77 µM | < 1e-05 s⁻¹ | < 1e-05 s⁻¹ |  | 4.17e-05 ± 1.4e-05 s⁻¹ | 4.59e-05 ± 1.4e-05 s⁻¹ |
